We go through three substances from article doi:10.1101/2022.08.30.505904.

Assay [1] addresses PaPcc2 with C-terminal hexa-histidine tag (Pyrococcus abyssi GE5). In words: SEC.
Assay [2] deals with CBKP2 complex (PaCgi121/PaBud32/PaKae1/PaPcc2) (Pyrococcus abyssi | Pyrococcus abyssi GE5) (UniProt Q9UXT7). As to the kind of experiment: SEC-SAXS.
In assay [3] the target is CBKP1 complex (PaCgi121/PaBud32/PaKae1/PaPcc1) (Pyrococcus abyssi) (UniProt Q9UXT7). In words: SEC-SAXS.

Take “PaPcc2 with C-terminal hexa-histidine tag (natural protein)”: in assay [1], the stoichiometry N came out at 2.

Turning to “CBKP2 complex (PaCgi121/PaBud32/PaKae1/PaPcc2) (from UniProt Q9UXT7 1-324)”, in assay [2], the stoichiometry N worked out at 2.

Take “CBKP1 complex (PaCgi121/PaBud32/PaKae1/PaPcc1) (from UniProt Q9UXT7 1-324)”: in assay [3], the stoichiometry N was 2.
